Biological target: SARS-CoV-2 S Foldon his (prefusion stabilized spike ectodomain) (SARS-CoV-2 (Wuhan-Hu-1) | bacteriophage T4) (UniProt P0DTC2)
Experiment: native gel or EMSA

SARS-CoV-2 S Foldon his (prefusion stabilized spike ectodomain) (from UniProt P0DTC2 14-1138) (domain or fragment)
stoichiometry N: 3

From article PMC11068555
